Source: US20140161732A1
Bridge positions count the residues as written; N and C are the ends. Side chains are listed from the residue outwards. * marks the point of attachment. Biotin = O=C1N[C@H]2[C@H](CS[C@H]2CCCCC(=O)*)N1; AEEA = NCCOCCOCC(=O)O

How the values were obtained:
[1] = target: T1, KDR expressed on transiently transfected 293H cells (human), P35968; experiment: competition with 125I-VEGF on KDR-transfected 293H cells (mock subtracted), peptide at 30 µM; settings: remark: other sources report otherwise
[2] = target: T1, KDR expressed on transiently …; experiment: competition with 125I-VEGF on KDR-transfected 293H cells (mock subtracted), peptide at 0.3 µM; settings: remark: other sources report otherwise

T1 sequence (P35968 20-1356): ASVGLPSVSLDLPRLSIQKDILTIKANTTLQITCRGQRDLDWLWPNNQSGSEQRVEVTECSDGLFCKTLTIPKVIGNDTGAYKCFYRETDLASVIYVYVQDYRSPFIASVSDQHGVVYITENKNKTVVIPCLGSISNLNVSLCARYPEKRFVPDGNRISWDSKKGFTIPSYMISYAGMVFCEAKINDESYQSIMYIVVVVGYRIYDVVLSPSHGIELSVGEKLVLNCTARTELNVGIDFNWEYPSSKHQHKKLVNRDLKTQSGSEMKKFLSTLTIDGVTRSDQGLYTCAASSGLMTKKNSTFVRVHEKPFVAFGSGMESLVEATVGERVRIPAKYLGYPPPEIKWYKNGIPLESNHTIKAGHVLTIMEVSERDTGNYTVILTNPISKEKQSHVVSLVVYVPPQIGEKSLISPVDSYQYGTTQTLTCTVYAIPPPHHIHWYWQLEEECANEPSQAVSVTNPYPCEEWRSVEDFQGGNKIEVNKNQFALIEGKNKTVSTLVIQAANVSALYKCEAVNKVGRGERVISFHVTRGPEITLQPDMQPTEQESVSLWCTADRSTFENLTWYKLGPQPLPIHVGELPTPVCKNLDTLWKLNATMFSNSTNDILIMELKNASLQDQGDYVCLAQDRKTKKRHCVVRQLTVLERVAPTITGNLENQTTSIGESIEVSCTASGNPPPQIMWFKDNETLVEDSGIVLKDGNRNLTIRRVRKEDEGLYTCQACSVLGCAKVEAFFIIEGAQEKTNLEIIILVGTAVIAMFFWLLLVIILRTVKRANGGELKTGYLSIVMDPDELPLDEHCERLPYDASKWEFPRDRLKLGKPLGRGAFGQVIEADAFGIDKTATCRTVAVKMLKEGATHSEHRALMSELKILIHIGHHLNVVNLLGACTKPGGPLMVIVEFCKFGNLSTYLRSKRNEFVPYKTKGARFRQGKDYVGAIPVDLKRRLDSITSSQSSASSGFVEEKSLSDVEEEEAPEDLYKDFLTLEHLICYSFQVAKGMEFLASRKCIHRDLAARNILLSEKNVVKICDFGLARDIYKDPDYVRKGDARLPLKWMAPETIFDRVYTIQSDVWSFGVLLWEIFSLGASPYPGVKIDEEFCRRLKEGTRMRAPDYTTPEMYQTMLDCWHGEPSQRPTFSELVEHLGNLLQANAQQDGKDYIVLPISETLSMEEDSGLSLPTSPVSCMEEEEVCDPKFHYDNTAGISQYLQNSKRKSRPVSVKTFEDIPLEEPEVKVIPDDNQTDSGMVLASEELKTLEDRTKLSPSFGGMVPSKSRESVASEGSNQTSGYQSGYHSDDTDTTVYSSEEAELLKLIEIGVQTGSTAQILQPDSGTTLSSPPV

In the case of Ac-AGPKWCEEDWYYCMITGTGGGK([AEEA-AEEA-Biotin])-NH2 (disulfide 6-13 (inferred)) [biotinylated SEQ ID NO:264 with a JJ spacer], the % inhibition of 125I-labeled VEGF binding [1] is reported as 48% and the % inhibition of 125I-labeled VEGF binding [2] is reported as 24.4%.
